Results from PMC4728340, “Structure of the polyisoprenyl-phosphate glycosyltransferase GtrB and insights into the mechanism of catalysis” (Nature Communications, 2016).

Biological target: the molecule itself
Assay: crystal structure; purified protein in n-decyl-beta-D-maltopyranoside (DM); sitting drop vapour diffusion at 22 °C, 16-18% PEG600, 0.12 M Tris/HCl pH 9.0, 0.1 M NaCl, 1 mM TCEP; crystals soaked with 5 mM MnCl2 and 25 mM UDP-glucose; space group C2, one tetramer in the asymmetric unit

B1: GtrB from Synechocystis sp. PCC6803 (enzyme, Synechocystis sp. PCC 6803, UniProt Q55487 1-318, looked up)
chain: MTIELSIVIPMYNEEDNLEHLFARLLEVLTPLKITYEIICVNDGSKDKTLKQLIDCYQSNRQIKIVNLSRNFGKEIALSAGIDYAQGNAVIPIDADLQDPPELIHELVDKWREGYDIVYATRRSRQGETWVKQFTAKMFYKVIGRMTEIKIPPNTGDFRLMDRKVVNAIKQLPERTRFMKGLFAWVGYRQTFVLFDREPRFQGQTKWNYWKLWNFALDGIFSFSLLPLKVWTYLGSIISLLSLAYASFLILKTITLGVDVPGYASLMVAILFLGGVQLISLGVIGEYLGRVYEEVKARPLYLVSDLWGLEYLPLEKLN
notes: GtrB, polyisoprenyl-phosphate glycosyltransferase, Synechocystis sp; PCC 6803, UniProt Q55487; open reading frame amplified from genomic DNA; a TEV protease cleavage site stands between the tag and the protein; Vector pMCSG7; A selenomethionine-substituted form was used for phasing only; In the deposited coordinates each protomer is divided into two chains; also called GtrBSyn; WT
  stoichiometry N: 4

B2: GtrB from Synechocystis sp. PCC6803, point mutant F215A (enzyme, Synechocystis sp. PCC 6803, UniProt Q55487 1-318, looked up)
chain: MTIELSIVIPMYNEEDNLEHLFARLLEVLTPLKITYEIICVNDGSKDKTLKQLIDCYQSNRQIKIVNLSRNFGKEIALSAGIDYAQGNAVIPIDADLQDPPELIHELVDKWREGYDIVYATRRSRQGETWVKQFTAKMFYKVIGRMTEIKIPPNTGDFRLMDRKVVNAIKQLPERTRFMKGLFAWVGYRQTFVLFDREPRFQGQTKWNYWKLWNAALDGIFSFSLLPLKVWTYLGSIISLLSLAYASFLILKTITLGVDVPGYASLMVAILFLGGVQLISLGVIGEYLGRVYEEVKARPLYLVSDLWGLEYLPLEKLN
notes: GtrB, Synechocystis sp; PCC 6803, UniProt Q55487, same construct as m1 with the point mutation F215A (QuikChange); also called GtrB (F215A); source: E. coli, purified and crystallized in the same way as the wild type
  binding result: binds
